This note sets out measurements from US20250376539A1 (KIRA PHARMACEUTICALS SUZHOU, published 2025).

Positions count from the first letter of the chain named.

Assay [1] concerns the target T1, recombinant human C2a, C-terminal 6His-tag, made in house (CHO cell expression) (human, UniProt P06681 244-752).
T1 sequence: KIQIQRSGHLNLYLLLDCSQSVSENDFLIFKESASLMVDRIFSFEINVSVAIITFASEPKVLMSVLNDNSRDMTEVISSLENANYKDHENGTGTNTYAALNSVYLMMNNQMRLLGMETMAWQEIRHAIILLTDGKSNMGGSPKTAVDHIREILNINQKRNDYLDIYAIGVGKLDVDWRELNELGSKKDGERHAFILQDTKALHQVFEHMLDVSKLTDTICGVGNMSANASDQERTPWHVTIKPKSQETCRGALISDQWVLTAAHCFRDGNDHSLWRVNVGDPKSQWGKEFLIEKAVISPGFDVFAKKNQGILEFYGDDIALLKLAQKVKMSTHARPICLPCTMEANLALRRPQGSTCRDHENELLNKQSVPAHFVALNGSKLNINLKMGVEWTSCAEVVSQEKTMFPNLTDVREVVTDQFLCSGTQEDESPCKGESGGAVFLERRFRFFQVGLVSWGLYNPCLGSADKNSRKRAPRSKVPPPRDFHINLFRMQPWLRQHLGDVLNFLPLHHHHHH
The assay can be described thus: ELISA on human C2a, OD450nm against log Ab conc. (nmol/L).

The target of assay [2] is T2, recombinant human complement C2 (NP_000054.2), C-terminal 6His-tag, made in house (CHO cell expression) (human, UniProt P06681 21-752).
T2 construct: a linker before the tag is not described; also called human C2; Human C2
T2 sequence: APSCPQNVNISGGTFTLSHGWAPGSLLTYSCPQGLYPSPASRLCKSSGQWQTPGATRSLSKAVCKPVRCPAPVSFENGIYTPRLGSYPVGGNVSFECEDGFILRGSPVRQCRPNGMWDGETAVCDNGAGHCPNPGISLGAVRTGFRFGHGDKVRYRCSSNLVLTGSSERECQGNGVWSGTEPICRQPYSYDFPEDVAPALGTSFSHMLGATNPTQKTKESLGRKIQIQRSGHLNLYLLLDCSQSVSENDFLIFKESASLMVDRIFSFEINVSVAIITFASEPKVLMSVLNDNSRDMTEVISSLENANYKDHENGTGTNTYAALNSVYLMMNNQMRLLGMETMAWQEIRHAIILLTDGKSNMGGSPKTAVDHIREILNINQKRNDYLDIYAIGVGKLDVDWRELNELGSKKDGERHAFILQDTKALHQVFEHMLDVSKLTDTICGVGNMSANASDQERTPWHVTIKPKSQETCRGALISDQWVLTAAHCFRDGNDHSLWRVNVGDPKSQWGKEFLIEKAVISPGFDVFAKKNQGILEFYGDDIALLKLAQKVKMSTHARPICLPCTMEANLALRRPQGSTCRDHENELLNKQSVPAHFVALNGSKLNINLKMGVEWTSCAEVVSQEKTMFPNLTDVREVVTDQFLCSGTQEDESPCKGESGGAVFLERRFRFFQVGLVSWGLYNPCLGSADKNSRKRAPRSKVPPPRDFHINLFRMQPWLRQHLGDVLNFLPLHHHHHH
The assay can be described thus: BLI (Gator); ratio of dissociation at pH 5.8 to pH 7.4. As for the experimental part: (§1) The histidine mutant constructs in Table 4 were tested for their pH-dependent dissociation from human C2. Probe-immobilized anti-C2 antibodies were incubated with C2 at pH 7.4 for 600s, followed by a 600s dissociation period in K Buffer at pH 7.4 or pH 5.8. The data were processed and analyzed by the Gator evaluation software.

For assay [3], the target named is T2, recombinant human complement C2 …. The assay can be described thus: BLI (Gator), antibody on probe; 600 s association at pH 7.4, 600 s dissociation at pH 5.8. As for the experimental part:
as §1

Assay [4] deals with T1, recombinant human C2a, C-terminal …. The assay can be described thus: ELISA.
Assay [5] deals with T3, recombinant cyno C2a, C-terminal 6His-tag, made in house (CHO cell expression) (cynomolgus monkey, UniProt P06681 244-752 (human entry)).
T3 chain: T1 sequence with C18S, D68V, M73I, N84K, R112Q, E117K, H148Q
The assay can be described thus: ELISA.

Assay [6] has as its target T1, recombinant human C2a, C-terminal …. The assay can be described thus: binding kinetics (BLI presumed).
Assay [7] deals with T3, recombinant cyno C2a, C-terminal …. The assay can be described thus: binding kinetics (BLI presumed).

B1: anti-C2 antibody 3.2 (antibody, IgG4, V domains shown)
VH: EVQLLESGGGLVQPGGSLRLSCAASGFTFRHYAMSWVRQAPGKGLEWVSLISGSGASTFYADSVKGRFTISRDNSENMLYLQMNSLRAEDTAVYYCAKDSLAVAGSEYFQHWGQGTLVTVSS
VL: SYVLTQAPSVSVAPGQTARITCGGNYFGGKSVHWYQQRPGQAPVLVVYDDSDRPSGIPERFSGSKSGNTATLAISRVEAGDEAAYYCQVYDTSSDHWVFGGGTKLTVL
notes: Recombinant; also called WT; "WT" 3.2
In the case of B1, in assay [1], the binding result was “no binding (tested: 100 nmol/L)”. The “Fold dissociation pH 5.8/pH 7.4” value in assay [2] was found to be 2.3 fold. In assay [3], the “Dissociation (%) pH 5.8” value was 8.2%.

B2: anti-C2 antibody 69.44 (antibody, IgG4, V domains shown)
VH: QVQLVQSGAEVKKPGASVKVSCKASGYSFTTYYMYWVRQAPGQGLEWMGIITPSGGSTTYAQKFQDRVTMTRDASTTTVYMELSSLRSEDTAVYYCARGYEGSYGFDHWGQGTLVTVSS
VL: SYELTQPPSVSLSPGQTASITCSGDKLGNKYTCWYQQKPGQSPVLVIYQDNKRPSGIPERFSGSNSGNTATLTISGTQAMDEADYYCQTWDSSTAVFGGGTKLTVL
notes: Recombinant
Consider B2, for which the EC50 in assay [4] came to 0.117 nM; in assay [5], 0.119 nM. The Kd was determined as 0.347 nM in assay [6] and 0.376 nM in assay [7]. Further, the koff in assay [6] was 6.68e-05 s⁻¹; in assay [7] it was 8.79e-05 s⁻¹. Further, the kon was determined as 193000 M⁻¹ s⁻¹ in assay [6] and 234000 M⁻¹ s⁻¹ in assay [7].
